Data as given in US20230174653A1.
Where two headings read alike, the source gives them in different places.

T1: B7-H3 (CD276), endogenous on tumor cells (LM7, A549, U373) (UniProt Q5ZPR3)
T1 sequence (looked up): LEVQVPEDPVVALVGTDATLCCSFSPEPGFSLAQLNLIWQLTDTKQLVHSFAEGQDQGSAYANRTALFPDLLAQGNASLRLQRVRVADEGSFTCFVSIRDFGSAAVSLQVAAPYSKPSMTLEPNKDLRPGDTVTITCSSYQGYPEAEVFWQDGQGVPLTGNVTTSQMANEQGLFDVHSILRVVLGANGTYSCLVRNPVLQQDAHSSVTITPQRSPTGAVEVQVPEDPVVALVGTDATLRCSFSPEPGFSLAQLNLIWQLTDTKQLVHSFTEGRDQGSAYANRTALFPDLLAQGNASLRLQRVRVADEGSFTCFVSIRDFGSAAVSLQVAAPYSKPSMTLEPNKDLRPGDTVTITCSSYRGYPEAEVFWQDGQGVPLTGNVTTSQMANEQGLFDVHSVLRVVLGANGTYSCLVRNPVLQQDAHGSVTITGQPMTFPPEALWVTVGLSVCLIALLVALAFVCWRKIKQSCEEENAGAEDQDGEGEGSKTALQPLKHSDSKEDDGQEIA


Legend:
[1] = target: T1, B7-H3 (CD276), endogenous on tumor cells (LM7, A549, U373); experiment: cell-based or functional assay
[2] = target: T1, B7-H3 (CD276), endogenous on tumor cells (LM7, A549, U373); experiment: cell-based or functional assay; remark: listed apart in the source

CD8α/CD28 B7-H3-CAR (second generation B7-H3-CAR with MGA271-derived scFv, CD8α hinge/transmembrane domain, CD28 costimulatory domain and CD3ζ), expressed on human T cells, sequence (chain): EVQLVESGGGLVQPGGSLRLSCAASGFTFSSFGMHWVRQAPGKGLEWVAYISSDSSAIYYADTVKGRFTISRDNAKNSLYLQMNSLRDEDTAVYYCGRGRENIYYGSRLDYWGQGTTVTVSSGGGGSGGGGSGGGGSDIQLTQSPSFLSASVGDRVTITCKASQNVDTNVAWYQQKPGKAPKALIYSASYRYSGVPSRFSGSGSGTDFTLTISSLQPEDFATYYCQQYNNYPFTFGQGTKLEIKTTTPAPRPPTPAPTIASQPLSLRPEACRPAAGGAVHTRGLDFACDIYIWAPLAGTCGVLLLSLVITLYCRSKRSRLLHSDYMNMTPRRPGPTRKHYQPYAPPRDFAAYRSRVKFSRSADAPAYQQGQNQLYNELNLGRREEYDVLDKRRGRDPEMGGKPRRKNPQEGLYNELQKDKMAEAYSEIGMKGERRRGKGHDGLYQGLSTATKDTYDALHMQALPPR
CD8α/4-1BB B7-H3-CAR (second generation B7-H3-CAR with MGA271-derived scFv, CD8α hinge/transmembrane domain, 4-1BB costimulatory domain and CD3ζ), expressed on human T cells, sequence (chain): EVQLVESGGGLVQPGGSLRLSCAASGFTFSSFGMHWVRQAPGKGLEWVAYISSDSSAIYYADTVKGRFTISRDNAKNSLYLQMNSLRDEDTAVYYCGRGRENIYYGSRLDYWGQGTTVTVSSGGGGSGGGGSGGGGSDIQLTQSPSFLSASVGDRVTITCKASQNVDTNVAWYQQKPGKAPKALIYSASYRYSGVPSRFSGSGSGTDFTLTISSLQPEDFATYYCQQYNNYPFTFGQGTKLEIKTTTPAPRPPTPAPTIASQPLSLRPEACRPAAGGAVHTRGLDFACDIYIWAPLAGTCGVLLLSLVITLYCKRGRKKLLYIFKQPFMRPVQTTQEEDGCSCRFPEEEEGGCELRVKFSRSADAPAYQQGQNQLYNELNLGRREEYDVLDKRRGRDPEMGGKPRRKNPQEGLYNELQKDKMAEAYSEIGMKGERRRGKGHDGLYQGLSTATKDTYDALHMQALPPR
CD8α/CD28.4-1BB third generation (3G) B7-H3-CAR (4-1BB signaling domain inserted into the CD8α/CD28-CAR), expressed on human T cells, sequence (chain): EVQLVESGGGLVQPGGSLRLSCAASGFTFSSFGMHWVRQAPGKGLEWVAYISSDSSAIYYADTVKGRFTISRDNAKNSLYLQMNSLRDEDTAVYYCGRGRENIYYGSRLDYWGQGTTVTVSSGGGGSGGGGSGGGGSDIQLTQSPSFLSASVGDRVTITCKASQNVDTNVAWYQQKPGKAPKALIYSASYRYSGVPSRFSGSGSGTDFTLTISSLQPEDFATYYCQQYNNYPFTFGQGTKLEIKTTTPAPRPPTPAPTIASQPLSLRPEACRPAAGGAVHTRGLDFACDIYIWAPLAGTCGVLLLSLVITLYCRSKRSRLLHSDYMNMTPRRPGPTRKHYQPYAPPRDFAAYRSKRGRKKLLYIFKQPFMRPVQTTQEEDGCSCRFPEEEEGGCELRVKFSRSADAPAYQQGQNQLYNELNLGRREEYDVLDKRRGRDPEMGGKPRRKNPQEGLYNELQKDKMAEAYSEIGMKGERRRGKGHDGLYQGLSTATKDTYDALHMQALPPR

Molecule | cytolysis of LM7 tumor cells, impedance assay (xCelligence), 1st stimulation, 0.5:1 T-cell to tumor cell ratio [1] [%] | cytolysis of LM7 tumor cells, impedance assay (xCelligence), 1st stimulation [1] [%] | cytolysis of LM7 tumor cells, impedance assay (xCelligence), 1st stimulation, 0.5:1 T-cell to tumor cell ratio [2] [%]
CD8α/4-1BB B7-H3-CAR (second generation B7-H3-CAR with MGA271-derived scFv, CD8α hinge/transmembrane domain, 4-1BB costimulatory domain and CD3ζ), expressed on human T cells | 100 |  | 
CD8α/CD28 B7-H3-CAR (second generation B7-H3-CAR with MGA271-derived scFv, CD8α hinge/transmembrane domain, CD28 costimulatory domain and CD3ζ), expressed on human T cells | 100 | 100 | 
CD8α/CD28.4-1BB third generation (3G) B7-H3-CAR (4-1BB signaling domain inserted into the CD8α/CD28-CAR), expressed on human T cells |  | 100 | 
CD28/4-1BB B7-H3-CAR (second generation B7-H3-CAR with MGA271-derived scFv, CD28 hinge/transmembrane domain, 4-1BB costimulatory domain and CD3ζ), expressed on … (protein) EVQLVESGGGLVQPGGSLRLSCAASGFTFSSFGMHWVRQAPGKGLEWVAYISSDSSAIYYADTVKGRFTISRDNAKNSLYLQMNSLRDEDTAVYYCGRGRENIYYGSRLDYWGQGTTVTVSSGGGGSGGGGSGGGGSDIQLTQSPSFLSASVGDRVTITCKASQNVDTNVAWYQQKPGKAPKALIYSASYRYSGVPSRFSGSGSGTDFTLTISSLQPEDFATYYCQQYNNYPFTFGQGTKLEIKIEVMYPPPYLDNEKSNGTIIHVKGKHLCPSPLFPGPSKPFWVLVVVGGVLACYSLLVTVAFIIFWVKRGRKKLLYIFKQPFMRPVQTTQEEDGCSCRFPEEEEGGCELRVKFSRSADAPAYQQGQNQLYNELNLGRREEYDVLDKRRGRDPEMGGKPRRKNPQEGLYNELQKDKMAEAYSEIGMKGERRRGKGHDGLYQGLSTATKDTYDALHMQALPPR |  |  | 100
CD28/CD28 B7-H3-CAR (second generation B7-H3-CAR with MGA271-derived scFv, CD28 hinge/transmembrane domain, CD28 costimulatory domain and CD3ζ), expressed on … (protein) EVQLVESGGGLVQPGGSLRLSCAASGFTFSSFGMHWVRQAPGKGLEWVAYISSDSSAIYYADTVKGRFTISRDNAKNSLYLQMNSLRDEDTAVYYCGRGRENIYYGSRLDYWGQGTTVTVSSGGGGSGGGGSGGGGSDIQLTQSPSFLSASVGDRVTITCKASQNVDTNVAWYQQKPGKAPKALIYSASYRYSGVPSRFSGSGSGTDFTLTISSLQPEDFATYYCQQYNNYPFTFGQGTKLEIKIEVMYPPPYLDNEKSNGTIIHVKGKHLCPSPLFPGPSKPFWVLVVVGGVLACYSLLVTVAFIIFWVRSKRSRLLHSDYMNMTPRRPGPTRKHYQPYAPPRDFAAYRSRVKFSRSADAPAYQQGQNQLYNELNLGRREEYDVLDKRRGRDPEMGGKPRRKNPQEGLYNELQKDKMAEAYSEIGMKGERRRGKGHDGLYQGLSTATKDTYDALHMQALPPR |  |  | 100
